Laboratory results: US20240279290A1
“And” between values parts separate entries of the source, which are not always exact repeats. Equal values may be shown once.

Target: human CD40 on primary human B cells or monocyte-derived dendritic cells (human) (UniProt P25942)
Assay: cell-based or functional assay

human CD40 on primary human B cells or monocyte-derived dendritic cells (human), sequence (P25942 21-277 H80K/K81H limits assumed): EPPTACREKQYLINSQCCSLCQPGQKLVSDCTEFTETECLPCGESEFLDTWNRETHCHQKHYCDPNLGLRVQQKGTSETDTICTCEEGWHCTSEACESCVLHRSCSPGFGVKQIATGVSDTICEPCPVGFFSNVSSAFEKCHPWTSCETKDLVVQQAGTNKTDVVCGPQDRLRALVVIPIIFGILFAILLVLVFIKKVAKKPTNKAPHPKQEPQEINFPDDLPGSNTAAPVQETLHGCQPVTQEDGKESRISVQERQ

**Q.** What does the source list for “anti-CD40 monoclonal antibody corresponding to sequence 21.4.1 of U.S. Pat. No. 7,338,660 B2”?
**A.** EC50 [nM], % CD86, human B cells + FAP-CHO, w HSA: 0.88 nM and 0.3 nM; EC50 [nM], % CD86, human B cells + FAP-CHO, w/o HSA: 1.9 nM and 0.51 nM; EC50 [nM], MFI CD86, human B cells + FAP-CHO, w HSA: 0.51 nM and 2.05 nM; EC50 [nM], MFI CD86, human B cells + FAP-CHO, w/o HSA: 1.13 nM and 4.73 nM; Efficacy [MFI at highest dose], MFI CD86, human B cells + FAP-CHO, w HSA: 1530 MFI and 1870 MFI; Efficacy [MFI at highest dose], MFI CD86, human B cells + FAP-CHO, w/o HSA: 1340 MFI and 2060 MFI; Efficacy [MFI at highest dose], MFI CD86, human B cells + WT-CHO (no FAP), w HSA: 1900 MFI and 1470 MFI; Efficacy [MFI at highest dose], MFI CD86, human B cells + WT-CHO (no FAP), w/o HSA: 2050 MFI and 1390 MFI
